Assay results published in a protein production outcome set (Wang et al. 2014).

Experiment: label from the status in PepcDB records

Sequence	protein production
MSDISKLIGAIVGSDDPVIIEFVLNIINKSGNLQEFIRNIQKLDAGISYEDSIKMYNAFLGKQEEEKVRNKVKSSPLSQKINQVLKDDVNLDDPVVTEFVLSILNKSKSITEFQEQLNLMQSGLDNETIFKIYQIASPPVMKEEVSVLPSTKIPAKIEAKIEEEVQKIESLDPSPVLHKVYEGKVRNITTFGCFVQIFGTRMKNCDGLVHISEMSDQRTLDPHDVVRQGQHIFVEVIKIQNNGKISLSMKNIDQHSGEIRKRNTESVEDRGRSNDAHTSRNMKNKIKRRALTSPERWEIRQLIASGAASIDDYPELKDEIPINTSYLTAKRDDGSIVNGNTEKVDSKLEEQQRDETDEIDVELNTDDGPKFLKDQQVKGAKKYEMPKITKVPRGFMNRSAINGSNAIRDHREEKLRKKREIEQQIRKQQSFDDPTKNKKDSRNEIQMLKNQLIVTEWEKNRMNESISYGKRTSLPISAQRQTLPVYAMRSELIQAVRDNQFLVIVGETGSGKTTQITQYLDEEGFSNYGMIGCTQPRRVAAVSVAKRVAEEVGCKVGHDVGYTIRFEDVTGPDTRIKYMTDGMLQREALLDPEMSKYSVIMLDEAHERTVATDVLFALLKKAAIKRPELKVIVTSATLNSAKFSEYFLNCPIINIPGKTFPVEVLYSQTPQMDYIEAALDCVIDIHINEGPGDILVFLTGQEEIDSCCEILYDRVKTLGDSIGELLILPVYSALPSEIQSKIFEPTPKGSRKVVFATNIAETSITIDGIYYVVDPGFAKINIYNARAGIEQLIVSPISQAQANQRKGRAGRTGPGKCYRLYTESAFYNEMLENTVPEIQRQNLSHTILMLKAMGINDLLKFDFMDPPPKNLMLNALTELYHLQSLDDEGKLTNLGKEMSLFPMDPTLSRSLLSSVDNQCSDEIVTIISMLSVQNVFYRPKDRQLEADSKKAKFHHPYGDHLTLLNVYTRWQQANYSEQYCKTNFLHFRHLKRARDVKSQISMIFKKIGLKLISCHSDPDLIRKTFVSGFFMNAAKRDSQVGYKTINGGTEVGIHPSSSLYGKEYEYVMYHSIVLTSREYMSQVTSIEPQWLLEVAPHFYKAGDAESQSRKKAKIIPLHNKFAKDQNSWRLSSIRQSRERALGIKR	failed
MKAPEGIACGKRQLVVSDTGGGRLLSYSIENGSVRGGTEIKAEQVPYPTKVQLTSKGEILVIDGKLRRIAHFSPEGSFAGYLDLKGVPAPATIAPRGIRVDDKDNIHILDIFGARVIVTDAAGTFQSQMPFPEGYRFISDLAVSASGTTLLLDSVASRVYAAARGETAFKPLTDGMKEYLQFPTSIATDKQGKIFILDQTGNAVVTLGQDGSFQGRQLNIGWKNSFLHYPSQLCISEENDIDVVIADRNNNRIQVFRVVRLEHHHHHH	failed
MGGSLRVAVLGAPGVGKTAIIRQFLFGDYPERHRPTDGPRLYRPAVLLDGAVYDLSIRDGDVAGPGSSPGGPEEWPDAKDWSLQDTDAFVLVYDICSPDSFDYVKALRQRIAETR	failed
MAQSINITELNLPQLEMLKNQLDQEVEFLSTSIAQLKVVQTKYVEAKDCLNVLNKSNEGKELLVPLTSSMYVPGKLHDVEHVLIDVGTGYYVEKTAEDAKDFFKRKIDFLTKQMEKIQPALQEKHAMKQAVMEMMSQKIQQLTALGAAQATVKA	failed
MAIAFHTFLLQLLLFFFASFAEANDSRKTYLVQMKVGGHRYGSSSGHQELLGEVLDDDSYKESFTGFSASLTPRERQKLMSKTTTVSSRRREVLEVSRSRNLKLQTTRSWDFMNLTLKAERNPENESDLVVAVIDSGIWPYSELFGSDSPPPPGWENKCENITCNNKIVGARSYYPKKEKYKWVEEKSVIDVTGHGTHVASIVAGRKVEKAGYFGLAEGTMRGGVPNAKIAVYKTCWRVIRKNGREDSVCREDNILKAIDDAIADKVDIISYSQGFQFTPLQKDKVSWAFLRALKNGILTSAAAGNYANNGKFYYTVANGAPWVMTVAASLKDRIFETKLELEGEDKPIIVYDTINTFETQDSFYPLLNEKAPPESTRKRELIAERNGYSILSNYDEKDKGKDVFFEFAQINLLDEAIKEREKGAIVLGGKSYDFNESIKLQFPIASIFLDEQKKGKLWDYYKKDQSKERLAKIHKTEEIPREEGWVPTVAHLSSRGPNCDSFLANILKNSHMNNCFQPDIAAPGLDIIAGWPENVKLSSDRPANDYRHLRFNIMSGTSMACPHATGLALYLKSFKRWSPSAIKSALMTTSSEMTDDDNEFAYGSGHLNATKVRDPGLVYETHYQDYIDYLCKLGYNTEKLRSHVGSDKIDCSKTEIDHDADLNYPTMTARVPLPLDTPFKKVFHRTVTNVNDGEFTYLREINYRGDKDFDEIIVDPPQLKFSELGETKTFTVTVTGISKRNWNKNRAFMTRNTWLTWTEKDGSRQVRSPIVIYSIKGPKACM	failed
